This is an account of results in patent US7504561B2, “GDC-1 genes conferring herbicide resistance” (Athenix Corporation, priority 2003, dated 2009).

This data set is described as follows: Standard pyruvate decarboxylase assay (coupled reaction with alcohol dehydrogenase, absorbance at 340 nm). Type of data set: biochemical. The conditions noted are these: 100 ng of GDC-1 protein. The procedure: 100 ng of GDC-1 protein was tested for activity in a standard pyruvate decarboxylase assay (Gounaris et al. (1971) J. of Biol. Chem. 246:1302-1309). This assay is a coupled reaction, wherein the first step the pyruvate decarboxylase (PDC) converts pyruvate to acetaldehyde and CO2. The acetaldehyde produced in this reaction is a substrate for alcohol dehydrogenase, which converts acetaldehyde and β-NADH to ethanol and β-NAD. Thus, PDC activity is detected by virtue of utilization of β-NADH as decrease in absorbance at 340 nm in a spectrophotometer. GDC-1 as well as a control enzyme (pyruvate decarboxylase, Sigma) were tested in this assay.

B1: GDC-1: glyphosate resistance-conferring decarboxylase from fungal strain ATX6394, SEQ ID NO:19; purified as 6×His-tagged protein (protein)
chain: MASINIRVQNLEQPMDVAEYLFRRLHEIGIRSIHGLPGDYNPLALDYLPSCGLRWVGSVNELNAAYAADGYARVKQMGALITTFGVGELSAINGVAGAFSEHVPVVHIVGCPSTASQRNGMLLHHTLGNGDFNIFANMSAQISCEVAKLTNPAEIATQIDHALRVCFIRSRPVYIMLPTDMVQAKVEGARLKEPIDLSEPPNDPEKEAYVVDVVLKYLRAAKNPVILVDACAIRHRVLDEVHDLIEKTNLPVFVTPMGKGAVNEEHPTYGGVYAGDGSHPPQVKDMVESSDLILTIGALKSDFNTAGFSYRTSQLNTIDLHSDHCIVKYSTYPGVQMRGVLRQVIKQLDASEINAQPAPVVENEVAKNRDNSPVITQAFFWPRVGEFLKKNDIVITETGTANFGIWDTKFPSGVTALSQVLWGSIGWSVGACQGAVLAAADDNSDRRTILFVGDGSFQLTAQELSTMIRLKLKPIIFVICNDGFTIERFIHGMEAEYNDIANWDFKALVDVFGGSKTAKKFAVKTKDELDSLLTDPTFNAAECLQFVELYMPKEDAPRALIMTAEASARNNAKTE
modifications: 6xHis tag; Fungal isolate from soil sample
notes: purified as 6×His-tagged protein
In the case of B1, the Pyruvate decarboxylase activity entry is “showed activity as a pyruvate decarboxylase”.
